Data on six sequences can be found in the supplement of paper PMC5998384.

Data set [1] concerns HeLa Kyoto. The data set is described as follows: solubility in G1/S (NP-40 vs SDS abundance) (log2 ratio); higher = more soluble. The note with it: cell cycle stage: G1/S.
Data set [2] relates to HeLa Kyoto. The data set is described as follows: melting temperature (median over replicates), in situ; higher = more thermally stable.
Data set [3] has as its system HeLa Kyoto. The data set is described as follows: solubility change mitosis vs G1/S (difference of NP-40 vs SDS log2 ratios) (log2 ratio difference); higher = more soluble in mitosis.
Data set [4] deals with HeLa Kyoto. Briefly: thermal stability score vs G1/S (z-score of summed log2 fold changes over temperatures); higher = more thermally stable than in G1/S.
[5] abbreviates: cell cycle stage: early G1 (4.5 h after nocodazole release).
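Wherever melting temperature (median over replicates), in situ is given: HeLa Kyoto cells synchronized by double thymidine or nocodazole block, proteins quantified by TMT10plex mass spectrometry, three independent biological replicates.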
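Wherever solubility change mitosis vs G1/S (difference of NP-40 vs SDS log2 ratios) is given: synchronized HeLa Kyoto cells (double thymidine block for G1/S, nocodazole release for mitosis), protein amounts in NP-40 versus SDS lysates quantified by mass spectrometry, three biological replicates.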
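Wherever solubility in G1/S (NP-40 vs SDS abundance) is given: HeLa Kyoto cells arrested at G1/S by double thymidine block, proteins quantified by TMT10plex mass spectrometry in mild NP-40 versus SDS extracts, three biological replicates.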
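Wherever thermal stability score vs G1/S (z-score of summed log2 fold changes over temperatures) is given: synchronized HeLa Kyoto cells, proteins quantified by TMT10plex mass spectrometry, three biological replicates, mitosis taken 0.5 h after nocodazole release, G1/S directly after double thymidine block.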

Consider “MAAATADPGAGNPQPGDSSGGGAGGGLPSPGEQELSRRLQRLYPAVNQQETPLPRSWSPKDKYNYIGLSQGNLRVHYKGHGKNHKDAASVRATHPIPAACGIYYFEVKIVSKGRDGYMGIGLSAQGVNMNRLPGWDKHSYGYHGDDGHSFCSSGTGQPYGPTFTTGDVIGCCVNLINGTCFYTKNGHSLGIAFTDLPANLYPTVGLQTPGEIVDANFGQQPFLFDIEDYMREWRAKVQGTVHCFPISARLGEWQAVLQNMVSSYLVHHGYCATATAFARMTETPIQEEQASIKNRQKIQKLVLEGRVGEAIETTQRFYPGLLEHNPNLLFMLKCRQFVEMVNGTDSEVRSLSSRSPKSQDSYPGSPSLSPRHGPSSSHMHNTGADSPSCSNGVASTKSKQNHSKYPAPSSSSSSSSSSSSSSPSSVNYSESNSTDSTKSQHHSSTSNQETSDSEMEMEAEHYPNGVLGSMSTRIVNGAYKHEDLQTDESSMDDRHPRRQLCGGNQAATERIILFGRELQALSEQLGREYGKNLAHTEMLQDAFSLLAYSDPWSCPVGQQLDPIQREPVCAALNSAILESQNLPKQPPLMLALGQASECLRLMARAGLGSCSFARVDDYLH [RANBP10]”, for which the “solubility in G1/S (log2)” value in the data set with HeLa Kyoto [1] was determined as 0.151. The melting temperature in the data set with HeLa Kyoto [2] (cell cycle stage: G1/S) stood at 51.4 °C; with HeLa Kyoto [2] (cell cycle stage: mitosis), 51.1 °C. In addition, the “solubility change mitosis (log2)” value in the data set with HeLa Kyoto [3] was -0.193. Moreover, the thermal stability score was 0.428 in the data set on HeLa Kyoto [4] (setting [5]) and 0.506 in the data set with HeLa Kyoto [4] (cell cycle stage: mitosis).

“MAAAVAAAGAGEPQSPDELLPKGDAEKPEEELEEDDDEELDETLSERLWGLTEMFPERVRSAAGATFDLSLFVAQKMYRFSRAALWIGTTSFMILVLPVVFETEKLQMEQQQQLQQRQILLGPNTGLSGGMPGALPSLPGKI [TOMM22]”: the “solubility in G1/S (log2)” value with HeLa Kyoto [1] is -0.782. The melting temperature stood at 53.4 °C in the data set with HeLa Kyoto [2] (cell cycle stage: G1/S) and 52.8 °C with HeLa Kyoto [2] (cell cycle stage: mitosis). Also, the “solubility change mitosis (log2)” value in the data set with HeLa Kyoto [3] worked out at 0.211. For the same sequence, the figures for the thermal stability score in the data set on HeLa Kyoto [4] (setting [5]) and in the data set on HeLa Kyoto [4] (cell cycle stage: mitosis) were -3.84 and -4.82, respectively.

For the sequence “MAAAVAAAGRLGWLFAALCLGNAAGEAAPGPRVLGFCLEEDGAAGAGWVRGGAARDTPDATFLLRLFGPGFANSSWSWVAPEGAGCREEAASPAGEWRALLRLRLRAEAVRPHSALLAVRVEPGGGAAEEAAPPWALGLGAAGLLALAALARGLQLSALALAPAEVQVLRESGSEAERAAARRLEPARRWAGCALGALLLLASLAQAALAVLLYRAAGQRAVPAVLGSAGLVFLVGEVVPAAVSGRWTLALAPRALGLSRLAVLLTLPVALPVGQLLELAARPGRLRERVLELARGGGDPYSDLSKGVLRCRTVEDVLTPLEDCFMLDASTVLDFGVLASIMQSGHTRIPVYEEERSNIVDMLYLKDLAFVDPEDCTPLSTITRFYNHPLHFVFNDTKLDAVLEEFKRGKSHLAIVQKVNNEGEGDPFYEVLGLVTLEDVIEEIIRSEILDESEDYRDTVVKRKPASLMAPLKRKEEFSLFKVSDDEYKVTISPQLLLATQRFLSREVDVFSPLRISEKVLLHLLKHPSVNQEVRFDESNRLATHHYLYQRSQPVDYFILILQGRVEVEIGKEGLKFENGAFTYYGVSALTVPSSVHQSPVSSLQPIRHDLQPDPGDGTHSSAYCPDYTVRALSDLQLIKVTRLQYLNALLATRAQNLPQSPENTDLQVIPGSQTRLLGEKTTTAAGSSHSRPGVPVEGSPGRNPGV [CNNM3]”, the “solubility in G1/S (log2)” value in the data set on HeLa Kyoto [1] worked out at 0.0405. Moreover, the melting temperature was found to be 52.3 °C in the data set on HeLa Kyoto [2] (cell cycle stage: G1/S) and 51.3 °C in the data set with HeLa Kyoto [2] (cell cycle stage: mitosis). For the same sequence, the “solubility change mitosis (log2)” value in the data set on HeLa Kyoto [3] is -0.00872. In addition, the thermal stability score with HeLa Kyoto [4] (setting [5]) was -0.222; in the data set with HeLa Kyoto [4] (cell cycle stage: mitosis), -0.298.

Take “MAAAVAAAPGALGSLHAGGARLVAACSAWLCPGLRLPGSLAGRRAGPAIWAQGWVPAAGGPAPKRGYSSEMKTEDELRVRHLEEENRGIVVLGINRAYGKNSLSKNLIKMLSKAVDALKSDKKVRTIIIRSEVPGIFCAGADLKERAKMSSSEVGPFVSKIRAVINDIANLPVPTIAAIDGLALGGGLELALACDIRVAASSAKMGLVETKLAIIPGGGGTQRLPRAIGMSLAKELIFSARVLDGKEAKAVGLISHVLEQNQEGDAAYRKALDLAREFLPQGPVAMRVAKLAINQGMEVDLVTGLAIEEACYAQTIPTKDRLEGLLAFKEKRPPRYKGE [AUH]”: in the data set on HeLa Kyoto [1], the “solubility in G1/S (log2)” value came out at 0.261. For the same sequence, the melting temperature with HeLa Kyoto [2] (cell cycle stage: G1/S) and in the data set with HeLa Kyoto [2] (cell cycle stage: mitosis) was 51.6 °C in each case. Moreover, the “solubility change mitosis (log2)” value in the data set with HeLa Kyoto [3] was -0.0164. Besides, the thermal stability score amounted to 0.266 in the data set with HeLa Kyoto [4] (setting [5]) and 1.09 with HeLa Kyoto [4] (cell cycle stage: mitosis).

With “MAACTARRALAVGSRWWSRSLTGARWPRPLCAAAGAGAFSPASTTTTRRHLSSRNRPEGKVLETVGVFEVPKQNGKYETGQLFLHSIFGYRGVVLFPWQARLYDRDVASAAPEKAENPAGHGSKEVKGKTHTYYQVLIDARDCPHISQRSQTEAVTFLANHDDSRALYAIPGLDYVSHEDILPYTSTDQVPIQHELFERFLLYDQTKAPPFVARETLRAWQEKNHPWLELSDVHRETTENIRVTVIPFYMGMREAQNSHVYWWRYCIRLENLDSDVVQLRERHWRIFSLSGTLETVRGRGVVGREPVLSKEQPAFQYSSHVSLQASSGHMWGTFRFERPDGSHFDVRIPPFSLESNKDEKTPPSGLHW [POLDIP2]”, the “solubility in G1/S (log2)” value with HeLa Kyoto [1] was determined as 0.07. For the same sequence, the melting temperature came out at 50.9 °C with HeLa Kyoto [2] (cell cycle stage: G1/S) and 51.4 °C with HeLa Kyoto [2] (cell cycle stage: mitosis). The “solubility change mitosis (log2)” value with HeLa Kyoto [3] was -0.0327. The thermal stability score in the data set with HeLa Kyoto [4] (setting [5]) is 0.146; in the data set on HeLa Kyoto [4] (cell cycle stage: mitosis), -0.814.

As for “MAAEDELQLPRLPELFETGRQLLDEVEVATEPAGSRIVQEKVFKGLDLLEKAAEMLSQLDLFSRNEDLEEIASTDLKYLLVPAFQGALTMKQVNPSKRLDHLQRAREHFINYLTQCHCYHVAEFELPKTMNNSAENHTANSSMAYPSLVAMASQRQAKIQRYKQKKELEHRLSAMKSAVESGQADDERVREYYLLHLQRWIDISLEEIESIDQEIKILRERDSSREASTSNSSRQERPPVKPFILTRNMAQAKVFGAGYPSLPTMTVSDWYEQHRKYGALPDQGIAKAAPEEFRKAAQQQEEQEEKEEEDDEQTLHRAREWDDWKDTHPRGYGNRQNMG [IGBP1]”, in the data set with HeLa Kyoto [1], the “solubility in G1/S (log2)” value stood at 0.454. Besides, the melting temperature with HeLa Kyoto [2] (cell cycle stage: G1/S) is 50.7 °C; in the data set on HeLa Kyoto [2] (cell cycle stage: mitosis), 51.4 °C. In the data set on HeLa Kyoto [3], the “solubility change mitosis (log2)” value turned out to be 0.103. Further, the thermal stability score in the data set on HeLa Kyoto [4] (setting [5]) is -0.476; in the data set with HeLa Kyoto [4] (cell cycle stage: mitosis), -0.0586.
